Measured values published in the Human Domainome abundance scans (Beltran et al. 2025).

B1: Neutrophil cytosol factor 2, residues 456 to 514; numbered along this chain, P19878 (parent)
chain: LKKGSQVEALFSYEATQPEDLEFQEGDIILVLSKVNEEWLEGECKGKVGIFPKVFVEDC

Variants of: B1
Assay: abundance fitness (aPCA) (normalised: wild type 0, dead -1); higher = more abundant; growth selection in yeast, the domain comes from the species named
Conditions: Homo sapiens

Abundance fitness: each site, then its substitutions
V48: K 0.295, D -0.443, W -0.901, C -0.392, P -1.04, N -0.334, T -0.031, S -0.355, F -0.505, Y -0.17, G -0.387, E -0.974, I -0.138, R 0.68, L -0.706, A 0.008
C44: P -0.583, R -0.336, Y -0.478, D -0.557, H -0.806, V -0.455, W -0.182, F -0.741, L -0.35, T -0.467, N -0.924, G -0.383, I -0.705, M 0.102, A -0.241, E -0.865, K -0.574
V54: G -0.209, K 0.663, Q 0.298, W -0.438, M 0.378, E -0.124, Y -0.03, C 0.378, F -0.203, L -0.434, P -0.459, D 0.049, I -0.079, R 0.625, H 0.425, T 0.18, A 0.431
V56: C -0.52, F -0.255, P -1.09, K -0.637, Q -0.581, R -0.637, W -0.46, L -0.589, H -0.624, E -0.415, D -0.412, A -0.719, N -0.439, I -0.81, Y -0.574, G -0.713, T -0.457
C59: D -0.555, G -0.64, I 0.153, H -0.361, F -0.044, A 0.057
G49: C -0.756, P -0.722, I -0.427, R -0.758, F -0.469, E -0.63, K 0.002, V -1.05, H -0.893, T -0.951, D -0.478, L -0.42, M -0.075, A -0.59, W -0.137, Y -0.503, N -0.735
F51: I -0.506, W -0.739, T -0.165, N -0.584, P -0.924, M 0.006, G -0.425, S -0.328, R -0.716, C -0.247, A -0.63, E 0.113, Y -0.359, H -0.18, V -0.342, L -0.735
E41: V -0.02, R 0.131, M 0.275, F 0.248, N -0.635, A -0.394, I 0.175, Y 0.47, K 0.367, C 0.14, W -0.267, H -0.682, T -0.527, S -0.28, L 0.275, Q 0.238, G -0.157
I50: C -0.4, G -0.347, P 0.096, Q -0.659, E -0.58, S -0.448, F -0.389, A -0.213, M -0.621, K 0.108, N -0.821, R -0.125, Y -0.208, H -0.371, D -0.306, V -0.298
E43: G -0.152, W -0.435, V -0.654, R -0.521, H -0.314, M -0.009, T -0.163, Q -0.078, A -0.035, C -0.685, L -0.487, N -0.758, P -0.818, K -0.235, S 0.025, I -0.567, F -0.324
F55: D -0.409, W -0.529, L 0.207, E -0.821, A 0.034, P -0.145, Y 0.152, C 0.597, S -0.753, H -0.229, M 0.111, T -0.133, N -0.522, R -0.521, I -0.599, V 0.271, K -0.584, G -0.486
K47: D -0.858, F -0.241, R -0.118, N -0.271, T -0.284, W -0.416, A -1.04, V -0.331, M -0.924, P -0.806, H -0.673, C -0.658, Y -0.742, Q -0.856, S -0.22, E -0.822, I -0.642, G -0.511, L -0.361
G46: W -0.346, S -0.928, Y -0.352, I -0.615, E -0.189, R -0.392, M -0.599, D -0.703, P -0.747, A -0.313, T -0.904, N 0.219, H -0.84, C -0.479, L -0.226, V -0.585, K -0.732
G42: D -0.803, N -0.484, K -0.768, R -0.952, C -0.782, A -0.146, L -0.569, Y -0.466, F -0.509, W -0.322, E -0.237, Q -0.637, V -0.748, P -0.375, T -0.876, M -0.954, I -0.473
P52: E -0.642, V -0.598, L -0.094, K -0.559, G -0.215, A -0.305, W -0.953, F -0.459, Q -0.645, C -0.51, I -0.766, R -0.918, D -0.479, M -0.253, S -0.585, T -0.341, Y -0.738
K53: C -0.848, N -0.378, H -0.928, V -0.536, S -0.39, Y -0.722, T -0.707, G 0.02, W -0.808, A -0.246, M -0.549, I -0.865, E -0.353, L -0.749, D -0.61, F -0.857, P -0.716, R 0.195
W39: Y -0.321, Q -0.864, R -0.893, T -0.735, S -0.666
D58: P 0.214, R 0.155, F -0.718, S 0.022, M -0.203, Q -0.079, C 0.313, L -0.493, I -0.268, Y -0.595, K 0.351, E 0.091, G 0.392, V -0.138, T 0.133
L40: D -0.544, F -0.548, I -0.183, V -0.451, H -0.764, C -0.614, T -0.749, R -0.217, S -0.729, N -0.945, E -0.742, K -0.918, Y 0.528, M -0.042, A -0.731, Q -0.58, P -0.02, W -0.277
E57: H -0.084, T 0.487, N -0.194, L -0.505, F -0.607, K 0.201, S 0.271, D -0.254, Q 0.541, W -0.033, G 0.005, V -0.198, R 0.865, C -0.15, M -0.464, I -0.697, P -0.28
K45: Y -0.505, C -0.191, A -0.765, G -0.61, S -0.691, I -0.937, P -0.904, N 0.203, R 0.012, Q -0.577, T -0.562, D 0.065, E -0.905, H 0.232, W -0.125, V -0.734, F -0.669
